Results on 27 molecules are retold here after US8008547B2, “Glyphosate-N-acetyltransferase (GAT) genes” (E.I. duPont de Nemours, priority 2000, dated 2011).

Positions count from the first letter of the chain named.

A short description of the data set: Standard protocol for determination of kcat and KM (continuous spectrophotometric assay, Acetyl CoA hydrolysis at 235 nm). In kind it is biochemical. To be noted: purified protein, about 23° C., 0.2 mM acetyl CoA; for Kcat: 20 mM HEPES pH 6.8, 10% ethylene glycol; for Km: pH 6.8, glyphosate 0.125 to 10 mM. An outline of the steps:
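KM from initial rates over 0.125–10 mM glyphosate, fitted by Lineweaver-Burke transformation of Michaelis-Menten; kcat/KM computed as kcat divided by KM. Continuous spectrophotometric read of acetyl-CoA hydrolysis at 235 nm.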

B1: SEQ ID NO: 440: GAT polypeptide (protein)
chain: MLEVKPINAEDTYELRHRILRPNQPIEACMYETDLLRGAFHLGGFYRGKLISIASFHQAEHSELQGQKQYQLRGMATLEGYRDQKAGSSLIKHAEQLLRKRGADLLWCNARTSASGYYKKLGFSEQGEVFDTPPVGPHILMYKRIT
modifications: 0_5B3
notes: GAT polypeptide
By Km is commonly meant the substrate concentration at which the rate is half of its maximum. Turning to B1, the Kcat worked out at 143 min⁻¹ and the Km turned out to be 390 µM.

B2: SEQ ID NO: 460: GAT polypeptide (protein)
chain: B1 chain with L2I, Y31F, T33S, F45Y, K92R, L97I, L105M
modifications: 11_3B5
notes: GAT polypeptide
For B2, the Kcat was determined as 194.61 min⁻¹ and the Km came to 260 µM.

B3: SEQ ID NO: 441: GAT polypeptide (protein)
chain: B1 chain with P6L, I26L, E63D, Q65E, Y81F, Q96E, L97I, D104N
modifications: 0_5B4
notes: GAT polypeptide
On to B3, for which the Kcat turned out to be 180 min⁻¹ and the Michaelis-Menten constant (Km) was 600 µM.

B4: SEQ ID NO: 443: GAT polypeptide (protein)
chain: B1 chain with L2I, R18K, I26L, E63G, D83E, L90I, Q96E, L97I, R101K, V129I
modifications: 0_5C4
notes: GAT polypeptide
Consider B4, for which the Kcat amounted to 205 min⁻¹ and the Km amounted to 670 µM.

B5: SEQ ID NO: 453: GAT polypeptide (protein)
chain: B1 chain with L2I, A28V, E63D, D83E, S89T, K92R, L97I
modifications: 10_4D5
notes: GAT polypeptide
As to B5, the Kcat is 82.72 min⁻¹.

B6: SEQ ID NO: 455: GAT polypeptide (protein)
chain: B1 chain with L2I, A28V, Y81F, D83E, K92R, L97I, V129I, I145L
modifications: 10_4F9
notes: GAT polypeptide
B6 registered a Kcat of 55.39 min⁻¹.

B7: SEQ ID NO: 446: GAT polypeptide (protein)
chain: B1 chain with L2I, D11E, Q65E, K92R, R101K, D104N, L105M, S113T, V129I
modifications: 0_5D7
notes: GAT polypeptide
As for B7, the Kcat was 244 min⁻¹ and the Michaelis-Menten constant (Km) is 1100 µM.

B8: SEQ ID NO: 447: GAT polypeptide (protein)
chain: B1 chain with T33S, F40L, E63D, Y81F, K92R, L97I, E128K
modifications: 0_6B4
notes: GAT polypeptide
In the case of B8, the Kcat is 252 min⁻¹ and the Km was 800 µM.

B9: SEQ ID NO: 449: GAT polypeptide (protein)
chain: B1 chain with L2I, T33S, F45Y, E63D, Y81F, K92R, L97I, D131E
modifications: 0_6D11
notes: GAT polypeptide
With B9, the Kcat was found to be 212 min⁻¹ and the Km came out at 440 µM.

B10: SEQ ID NO: 459: GAT polypeptide (protein)
chain: MLEVKPINAEDTYELRHRILRPNQPIEACMFETDLLRGAFHLGGFYRGKLISIASFHQAEHSDLQGQKQYQLRGMATLEGFREQKAGSTLIRHAEEILRKRGADLLWCNARTSASGYYKRLGFSEQGEIFDTPPVGPHILMYKRLT
modifications: 11_3B1
notes: GAT polypeptide
B10: the Kcat was 219.97 min⁻¹ and the Km turned out to be 630 µM.

B11: SEQ ID NO: 438: GAT polypeptide (protein)
chain: MIEVKPINAEDTYELRHKILRPNQPIEACMYESDLLRGAFHLGGFYRGKLISIASFHQAEHSDLEGQKQYQLRGMATLEGYRDQKAGSTLIKHAEEILRKRGADMLWCNARTTASGYYKKLGFSEQGEIFDTPPVGPHILMYKRLT
modifications: 0_4B10
notes: GAT polypeptide
For the molecule B11, the Kcat is 190 min⁻¹ and the Km was 680 µM.

B12: SEQ ID NO: 439: GAT polypeptide (protein)
chain: B11 chain with R47G, E96Q, I97L, T113S, I129V, D131E, R144K, L145I
modifications: 0_5B11
notes: GAT polypeptide
B12: the Kcat is 219 min⁻¹ and the Km worked out at 540 µM.

B13: SEQ ID NO: 458: GAT polypeptide (protein)
chain: B11 chain with A28V, S62P, E65Q, T89S, E96Q, M105L, T113S, I129V, D131E
modifications: 11_3A11
notes: GAT polypeptide
Molecule B13 displayed a Kcat of 55.66 min⁻¹.

B14: SEQ ID NO: 456: GAT polypeptide (protein)
chain: B10 chain with L2I, T33S, F45Y, F81Y, E83D, T89S, E96Q, R120K
modifications: 10_4G5
notes: GAT polypeptide
Take B14: the Kcat is 176.65 min⁻¹ and the Km came out at 580 µM.

B15: SEQ ID NO: 442: GAT polypeptide (protein)
chain: B11 chain with E65Q, T89S, K92R, E96Q, M105L, T113S
modifications: 0_5B8
notes: GAT polypeptide
Regarding B15, the Kcat amounted to 143 min⁻¹ and the Michaelis constant (Km) stood at 270 µM.

B16: SEQ ID NO: 454: GAT polypeptide (protein)
chain: B10 chain with T33S, D63E, F81Y, T89S, L105M, R120K, D131E
modifications: 10_4F2
notes: GAT polypeptide
Regarding B16, the Kcat worked out at 231.04 min⁻¹ and the Michaelis constant (Km) was 200 µM.

B17: SEQ ID NO: 444: GAT polypeptide (protein)
chain: B10 chain with L2I, F31Y, T33S, F81Y, E96Q, I97L, I129V
modifications: 0_5D11
notes: GAT polypeptide
On to B17, for which the Kcat is 224 min⁻¹ and the Michaelis constant (Km) turned out to be 670 µM.

B18: SEQ ID NO: 451: GAT polypeptide (protein)
chain: B11 chain with S33T, R47G, D83E, K92R, R101K, D104N, M105L, T113S, I129V
modifications: 0_6H9
notes: GAT polypeptide
On to B18, for which the Kcat was 228 min⁻¹ and the Michaelis constant (Km) came out at 470 µM.

B19: SEQ ID NO: 452: GAT polypeptide (protein)
chain: B1 chain with L2I, R18K, I26L, A28V, F45X, L97I, L105X, V129I, I145L
modifications: X: residue not identified in the source; ends and bridges not checked
notes: GAT polypeptide
B19 showed a Kcat of 69.6 min⁻¹.

B20: SEQ ID NO: 450: GAT polypeptide (protein)
chain: B10 chain with L2I, F31Y, T33S, F45Y, D63E, E96Q, L105M, R120K, L145I
modifications: 0_6F2
notes: GAT polypeptide
Turning to B20, the Kcat worked out at 175 min⁻¹ and the Km was determined as 340 µM.

B21: SEQ ID NO: 434: GAT polypeptide (protein)
chain: MIEVKPITAEDTYEIRHRILRPNQPLEACKYETDLLGGTFHLGGYYRGKLISIASFHQAEHPELEGQKQYQLRGMATLEGYREQKAGSTLIRHAEELLRKKGADLLWCNARTSASGYYKKLGFSEQGEVYDIPPTGPHILMYKKLT
modifications: 9_8H1
notes: GAT polypeptide
B21: the Kcat was 74.8 min⁻¹ and the Km came to 1700 µM.

B22: SEQ ID NO: 274: GAT polypeptide (protein)
chain: B21 chain with T8N, I51V, Q67R
modifications: 10_1H3
notes: GAT polypeptide
For B22, the Kcat is 76.2 min⁻¹ and the Km worked out at 1900 µM.

B23: SEQ ID NO: 275: GAT polypeptide (protein)
chain: B21 chain with T8N, K30M, F40L, G80E, E128G, T135V
modifications: 10_20D10
notes: GAT polypeptide
B23: the Kcat is 86.2 min⁻¹ and the Michaelis-Menten constant (Km) stood at 1600 µM.

B24: SEQ ID NO: 437: GAT polypeptide (protein)
chain: B21 chain with T8N, Q58K, P62S, Q67E, K68E, A114V, T135I
modifications: 9H11
notes: GAT polypeptide
As to B24, the Kcat worked out at 4 min⁻¹ and the Km came to 2300 µM.

B25: SEQ ID NO: 436: GAT polypeptide (protein)
chain: B21 chain with T8N, K30M, R47Q, Q58N, P62S, A114V, K119E, T135V, T146A
modifications: 9C6
notes: GAT polypeptide
As to B25, the Kcat worked out at 13 min⁻¹ and the Km stood at 2500 µM.

B26: SEQ ID NO: 276: GAT polypeptide (protein)
chain: B21 chain with T8N, K30M, I51V, I132T, T135V
modifications: 10_23F2
notes: GAT polypeptide
As for B26, the Kcat turned out to be 101.3 min⁻¹ and the Michaelis constant (Km) came out at 900 µM.

B27: SEQ ID NO: 435: GAT polypeptide (protein)
chain: B21 chain with T8N, T12A, G38S, G80E, T135V
modifications: 9_9H7
notes: GAT polypeptide
Consider B27, for which the Kcat amounted to 28 min⁻¹ and the Km was found to be 700 µM.
